The values below come from paper PMC13083859.

For the experiment, the target named is human muscarinic M3 receptor with C-terminal mCitrine (M3-mCit), wild type (human) (UniProt P20309). The experiment is described as follows: FRET or BRET; single-cell FRET between receptor-mCitrine and mTurq-Gγ2 of the co-expressed heterotrimer (Gαo or Gαq, Gβ1, Gγ2) in HEK293T cells permeabilized with 0.05% saponin for 2 min (GTP depletion), PTX-A co-expressed; room temperature; internal buffer pH 7.35; complex induced by 10 µM acetylcholine, its stability after wash-out quantified as area under the curve (AUC); complete dissociation by 1 µM GTPγS. In general terms: In BRET a luciferase serves as donor, and the signal depends on an acceptor being close.
Chain of UniProt P20309 (P20309 whole entry): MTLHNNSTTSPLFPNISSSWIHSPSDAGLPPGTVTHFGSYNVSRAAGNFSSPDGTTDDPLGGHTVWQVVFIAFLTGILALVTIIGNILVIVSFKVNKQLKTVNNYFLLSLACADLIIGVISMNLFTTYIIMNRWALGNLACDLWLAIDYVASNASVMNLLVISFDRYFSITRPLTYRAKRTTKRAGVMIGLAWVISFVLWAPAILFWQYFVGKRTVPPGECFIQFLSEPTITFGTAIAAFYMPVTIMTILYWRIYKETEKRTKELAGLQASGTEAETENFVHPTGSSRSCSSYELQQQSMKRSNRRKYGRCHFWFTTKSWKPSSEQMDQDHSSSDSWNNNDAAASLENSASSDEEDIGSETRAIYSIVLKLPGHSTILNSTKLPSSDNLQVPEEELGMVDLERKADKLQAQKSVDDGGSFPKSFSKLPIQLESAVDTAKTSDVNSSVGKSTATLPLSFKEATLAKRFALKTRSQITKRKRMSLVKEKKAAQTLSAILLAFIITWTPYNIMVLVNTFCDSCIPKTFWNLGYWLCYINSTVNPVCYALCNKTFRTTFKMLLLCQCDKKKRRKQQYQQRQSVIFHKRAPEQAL

Take “Go heterotrimer: PTX-insensitive Gαo, Gβ1-wt and mTurq-Gγ2 (from UniProt P09471 1-354; P62873 1-340; P59768 1-71) (complex)”: the AUC (area under the FRET curve after agonist wash-out) was determined as 30 a.u.

With “Gq heterotrimer: Gαq, Gβ1-wt and mTurq-Gγ2 (from UniProt P50148 1-359; P62873 1-340; P59768 1-71) (complex; other documents disagree on this pair)”, the AUC (area under the FRET curve after agonist wash-out) was found to be 106 a.u.
